{"source": "paper doi:10.1101/2022.03.11.483953", "binders": {"B1": {"name": "full-length H. sapiens ROCK2, O75116 1-1388 (enzyme)", "chain": "MSRPPPTGKMPGAPETAPGDGAGASRQRKLEALIRDPRSPINVESLLDGLNSLVLDLDFPALRKNKNIDNFLNRYEKIVKKIRGLQMKAEDYDVVKVIGRGAFGEVQLVRHKASQKVYAMKLLSKFEMIKRSDSAFFWEERDIMAFANSPWVVQLFYAFQDDRYLYMVMEYMPGGDLVNLMSNYDVPEKWAKFYTAEVVLALDAIHSMGLIHRDVKPDNMLLDKHGHLKLADFGTCMKMDETGMVHCDTAVGTPDYISPEVLKSQGGDGFYGRECDWWSVGVFLYEMLVGDTPFYADSLVGTYSKIMDHKNSLCFPEDAEISKHAKNLICAFLTDREVRLGRNGVEEIRQHPFFKNDQWHWDNIRETAAPVVPELSSDIDSSNFDDIEDDKGDVETFPIPKAFVGNQLPFIGFTYYRENLLLSDSPSCRETDSIQSRKNEESQEIQKKLYTLEEHLSNEMQAKEELEQKCKSVNTRLEKTAKELEEEITLRKSVESALRQLEREKALLQHKNAEYQRKADHEADKKRNLENDVNSLKDQLEDLKKRNQNSQISTEKVNQLQRQLDETNALLRTESDTAARLRKTQAESSKQIQQLESNNRDLQDKNCLLETAKLKLEKEFINLQSALESERRDRTHGSEIINDLQGRICGLEEDLKNGKILLAKVELEKRQLQERFTDLEKEKSNMEIDMTYQLKVIQQSLEQEEAEHKATKARLADKNKIYESIEEAKSEAMKEMEKKLLEERTLKQKVENLLLEAEKRCSLLDCDLKQSQQKINELLKQKDVLNEDVRNLTLKIEQETQKRCLTQNDLKMQTQQVNTLKMSEKQLKQENNHLMEMKMNLEKQNAELRKERQDADGQMKELQDQLEAEQYFSTLYKTQVRELKEECEEKTKLGKELQQKKQELQDERDSLAAQLEITLTKADSEQLARSIAEEQYSDLEKEKIMKELEIKEMMARHKQELTEKDATIASLEETNRTLTSDVANLANEKEELNNKLKDVQEQLSRLKDEEISAAAIKAQFEKQLLTERTLKTQAVNKLAEIMNRKEPVKRGNDTDVRRKEKENRKLHMELKSEREKLTQQMIKYQKELNEMQAQIAEESQIRIELQMTLDSKDSDIEQLRSQLQALHIGLDSSSIGSGPGDAEADDGFPESRLEGWLSLPVRNNTKKFGWVKKYVIVSSKKILFYDSEQDKEQSNPYMVLDIDKLFHVRPVTQTDVYRADAKEIPRIFQILYANEGESKKEQEFPVEPVGEKSNYICHKGHEFIPTLYHFPTNCEACMKPLWHMFKPPPALECRRCHIKCHKDHMDKKEEIIAPCKVYYDISTAKNLLLLANSTEEQQKWVSRLVKKIPKKPPAPDPFARSSPRTSMKIQQNQSIRRPSRQLAPNKPS"}}, "target": "full-length H. sapiens ROCK2 (H. sapiens), O75116", "test": "rotary shadowing electron microscopy", "settings": "remark: other sources report otherwise", "data": [{"binder": "B1", "values": [{"measurement": "stoichiometry N", "result": 2}]}]}
